From the RNAGym collection of RNA variant scans (doi:10.1073/pnas.2313332121)
Fewer inactive variants are shown than the library holds.

B1: TPR 5TU (parent)
chain: GGAUCUUCUCGAUCUAACAAAAAAGACAAAUCUGCCACAAAGCUUGAGAGCAUCUUCGGAUGCAGAGGCGGCAGCCUUCGGUGGCGCGAUAGCGCCAACGUUCUCAACUAUGACACGCAAAACGCGUGCUCCGUUGAAUGGAGUUUAUCAUG

Variants of: B1
Test: polymerase ribozyme fitness, log enrichment relative to wild type (log ratio); higher = more active; in vitro selection for triplet polymerase activity
Summary of the method: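 To select mutant libraries of each subunit of a heterodimeric triplet polymerase ribozyme, built by PCR and transcribed, each was annealed with a biotinylated primer, partner subunit and triplets, then incubated frozen at −7 °C. Extended constructs were gel-excised, captured on streptavidin beads and amplified by RT-PCR, in one round carried out in triplicate. Illumina sequencing of input and output libraries kept genotypes with ≥10 input reads and ≥1 read per output. Fitness is the base-2 logarithm of genotype enrichment relative to wild-type enrichment, from inverse-variance-weighted replicate averages.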

Q: With A20G C27U C35U A49U C76U C125U as the variant, how does the “polymerase ribozyme fitness (log ratio)” value read?
A: Its value is at most -4.2.

Q: Which “polymerase ribozyme fitness (log ratio)” value does the source give for A20G A73U G83A here?
A: The value was -2.36.

Q: For A20U A49G C85U A110G U148A, which “polymerase ribozyme fitness (log ratio)” value is on record?
A: Its value is at most -4.2.

Q: With A21C A110C as the variant, how does the “polymerase ribozyme fitness (log ratio)” value read?
A: The value was at most -4.2.

Q: For A20U C72U C85A U134C A150C, which “polymerase ribozyme fitness (log ratio)” value is on record?
A: Its value is at most -4.2.

Q: With A20U A29C A30G C54A G67C G80U C93U G94A A97C C99U as the variant, how does the “polymerase ribozyme fitness (log ratio)” value read?
A: Its value is at most -4.2.

Q: For A20U G50A U55G C85U A91U A137G, which “polymerase ribozyme fitness (log ratio)” value is on record?
A: Its value is at most -4.2.

Q: Which “polymerase ribozyme fitness (log ratio)” value does the source give for A21C A52C G68A U101G here?
A: Its value is at most -4.2.

Q: Which “polymerase ribozyme fitness (log ratio)” value does the source give for A20G G25A A40U A47G G48C C85A A142G here?
A: Its value is at most -4.2.

Q: For A21C A23U A24U G92A A106G G133A, which “polymerase ribozyme fitness (log ratio)” value is on record?
A: The value was at most -4.2.

Q: For A20U A41U G83U A89C C96G A150U, which “polymerase ribozyme fitness (log ratio)” value is on record?
A: Its value is -2.06.

Q: With A20U G46C G62U C75G G92A G140C as the variant, how does the “polymerase ribozyme fitness (log ratio)” value read?
A: The value was at most -4.2.

Q: For A20G A24U C85A C116A, which “polymerase ribozyme fitness (log ratio)” value is on record?
A: Its value is -0.238.

Q: With A20U U31C U109G as the variant, how does the “polymerase ribozyme fitness (log ratio)” value read?
A: The value was -0.957.

Q: With A20U U44G G46A G59C C96A A115C as the variant, how does the “polymerase ribozyme fitness (log ratio)” value read?
A: Its value is at most -4.2.

Q: Which “polymerase ribozyme fitness (log ratio)” value does the source give for A21C A40U C93A here?
A: The value was -1.84.

Q: Which “polymerase ribozyme fitness (log ratio)” value does the source give for A21C A41U G71A A98U G136U A147U U148C here?
A: The value was at most -4.2.

Q: Which “polymerase ribozyme fitness (log ratio)” value does the source give for A20C G59A G81C G86C here?
A: Its value is -3.14.

Q: Which “polymerase ribozyme fitness (log ratio)” value does the source give for A20U A40U A49C G94A C99A G143A here?
A: Its value is at most -4.2.

Q: For A20U A40C, which “polymerase ribozyme fitness (log ratio)” value is on record?
A: Its value is -0.959.

Q: For A21C C35A G84A G117A U127G, which “polymerase ribozyme fitness (log ratio)” value is on record?
A: The value was at most -4.2.

Q: Which “polymerase ribozyme fitness (log ratio)” value does the source give for A20U U55A C85A here?
A: The value was -3.29.

Q: For A21C A26C G71C C76G C87A C108U, which “polymerase ribozyme fitness (log ratio)” value is on record?
A: The value was at most -4.2.

Q: Which “polymerase ribozyme fitness (log ratio)” value does the source give for A20U A39U C51G A66C C93G U134A here?
A: Its value is at most -4.2.

Q: With A20C G68C G141C as the variant, how does the “polymerase ribozyme fitness (log ratio)” value read?
A: Its value is at most -4.2.

Q: Which “polymerase ribozyme fitness (log ratio)” value does the source give for A20U A47C C57U A64C G84C U148G here?
A: The value was at most -4.2.

Q: With A20U G42C C75A C105U C116U A120G G128A U146A as the variant, how does the “polymerase ribozyme fitness (log ratio)” value read?
A: The value was at most -4.2.

Q: Which “polymerase ribozyme fitness (log ratio)” value does the source give for A20G G83A G88C C93G G100A C149U here?
A: The value was at most -4.2.

Q: For A20U C27A U31G A40G G42U C96G A97G, which “polymerase ribozyme fitness (log ratio)” value is on record?
A: The value was at most -4.2.

Q: For A21C A66G, which “polymerase ribozyme fitness (log ratio)” value is on record?
A: The value was -3.91.

Q: For A20G A22C C93A, which “polymerase ribozyme fitness (log ratio)” value is on record?
A: The value was -3.38.

Q: For A20G C95A A110G, which “polymerase ribozyme fitness (log ratio)” value is on record?
A: The value was -3.46.

Q: For A20U A30U A37U C51G C93U C95A C96G C116G, which “polymerase ribozyme fitness (log ratio)” value is on record?
A: Its value is at most -4.2.

Q: Which “polymerase ribozyme fitness (log ratio)” value does the source give for A20U A52C here?
A: The value was -2.87.

Q: Which “polymerase ribozyme fitness (log ratio)” value does the source give for A21C C36G A41C C72U A73U U78G C96U C118U G128A A142U here?
A: The value was at most -4.2.

Q: For A20U G71A C95A, which “polymerase ribozyme fitness (log ratio)” value is on record?
A: Its value is at most -4.2.

Q: With A20C G81C C87U as the variant, how does the “polymerase ribozyme fitness (log ratio)” value read?
A: Its value is -1.28.

Q: For A21C C32G G84A G117A U135A, which “polymerase ribozyme fitness (log ratio)” value is on record?
A: The value was at most -4.2.

Q: With A20U A40U C69A as the variant, how does the “polymerase ribozyme fitness (log ratio)” value read?
A: The value was -2.77.

Q: For A20C U56G G92U, which “polymerase ribozyme fitness (log ratio)” value is on record?
A: Its value is -0.962.

Q: With A20U U53A as the variant, how does the “polymerase ribozyme fitness (log ratio)” value read?
A: The value was -2.36.

Q: Which “polymerase ribozyme fitness (log ratio)” value does the source give for A20G C57A C69A C76U C96U here?
A: Its value is -1.94.

Q: With A20U U61A C72A C75U C93G C99A C131G as the variant, how does the “polymerase ribozyme fitness (log ratio)” value read?
A: The value was at most -4.2.

Q: For A20U C36A A41G U56A G65U A119G U127C, which “polymerase ribozyme fitness (log ratio)” value is on record?
A: The value was at most -4.2.

Q: Which “polymerase ribozyme fitness (log ratio)” value does the source give for A20U A30G U53A U55G C63G G141U here?
A: The value was at most -4.2.

Q: Which “polymerase ribozyme fitness (log ratio)” value does the source give for A20G C43U G62U A91G here?
A: Its value is at most -4.2.

Q: Which “polymerase ribozyme fitness (log ratio)” value does the source give for A20G A26U A39C G86C A150C here?
A: The value was at most -4.2.

Q: For A20G G59A U77A C95U G117U C118G A122U, which “polymerase ribozyme fitness (log ratio)” value is on record?
A: The value was at most -4.2.

Q: With A20U A23C C35G G84A C125U as the variant, how does the “polymerase ribozyme fitness (log ratio)” value read?
A: Its value is at most -4.2.

Q: Which “polymerase ribozyme fitness (log ratio)” value does the source give for A20G C35G C51A C85U C99U C129A U148A here?
A: Its value is at most -4.2.

Q: With A20C U127G G133C U134C A137C A138G G140A as the variant, how does the “polymerase ribozyme fitness (log ratio)” value read?
A: Its value is at most -4.2.

Q: For A21C C35U U44A U53A U101G, which “polymerase ribozyme fitness (log ratio)” value is on record?
A: The value was at most -4.2.

Q: For A20U G42U U55G G62A, which “polymerase ribozyme fitness (log ratio)” value is on record?
A: Its value is at most -4.2.

Q: With A20U C57U as the variant, how does the “polymerase ribozyme fitness (log ratio)” value read?
A: The value was -2.23.

Q: For A20U C57A, which “polymerase ribozyme fitness (log ratio)” value is on record?
A: Its value is -1.36.

Q: With A20G A39G G50C C85A C93A C114G C125G as the variant, how does the “polymerase ribozyme fitness (log ratio)” value read?
A: The value was at most -4.2.

Q: For A20U A22C U82G G86U U101G C103G G143U, which “polymerase ribozyme fitness (log ratio)” value is on record?
A: The value was at most -4.2.

Q: With A20G C54G C96U as the variant, how does the “polymerase ribozyme fitness (log ratio)” value read?
A: The value was -2.

Q: Which “polymerase ribozyme fitness (log ratio)” value does the source give for A20G U33C C87U A89G U151G here?
A: Its value is at most -4.2.

Q: With A20U A28U C96G as the variant, how does the “polymerase ribozyme fitness (log ratio)” value read?
A: The value was at most -4.2.

Q: For A20C U82A A150G, which “polymerase ribozyme fitness (log ratio)” value is on record?
A: The value was -0.662.

Q: For A21C C27A A40U G46A C57U C87G G126A, which “polymerase ribozyme fitness (log ratio)” value is on record?
A: Its value is at most -4.2.

Q: For A20U A52C C54U G88U A107U C116A, which “polymerase ribozyme fitness (log ratio)” value is on record?
A: The value was at most -4.2.

Q: Which “polymerase ribozyme fitness (log ratio)” value does the source give for A20U U45A G48U A64G A137U here?
A: The value was at most -4.2.

Q: For A20U C93U G126A, which “polymerase ribozyme fitness (log ratio)” value is on record?
A: Its value is -1.5.

Q: For A20U U33A G83A G86A G100A C149U, which “polymerase ribozyme fitness (log ratio)” value is on record?
A: Its value is at most -4.2.

Q: With A20G U55A C96A U104G as the variant, how does the “polymerase ribozyme fitness (log ratio)” value read?
A: The value was -2.4.

Q: Which “polymerase ribozyme fitness (log ratio)” value does the source give for A21C A23G A37C C95G here?
A: Its value is at most -4.2.

Q: With A20U C36G G70A as the variant, how does the “polymerase ribozyme fitness (log ratio)” value read?
A: Its value is -4.1.

Q: With A20C U61G C75U U146A as the variant, how does the “polymerase ribozyme fitness (log ratio)” value read?
A: The value was -2.77.

Q: Which “polymerase ribozyme fitness (log ratio)” value does the source give for A21C A37U C76U C87U here?
A: The value was -1.62.

Q: For A21C A22U C54U A73G A89G, which “polymerase ribozyme fitness (log ratio)” value is on record?
A: The value was -1.48.

Q: Which “polymerase ribozyme fitness (log ratio)” value does the source give for A20C U90G C99U G136C here?
A: The value was at most -4.2.

Q: With A20U G58A C96U U111G G124A U148A as the variant, how does the “polymerase ribozyme fitness (log ratio)” value read?
A: The value was at most -4.2.

Q: Which “polymerase ribozyme fitness (log ratio)” value does the source give for A20U U56A here?
A: The value was -1.87.

Q: For A21C A60U, which “polymerase ribozyme fitness (log ratio)” value is on record?
A: Its value is -0.52.

Q: For A21C A60G, which “polymerase ribozyme fitness (log ratio)” value is on record?
A: The value was 0.714.

Q: With A20U A39C as the variant, how does the “polymerase ribozyme fitness (log ratio)” value read?
A: The value was -3.84.

Q: For A20G U56G G117C, which “polymerase ribozyme fitness (log ratio)” value is on record?
A: Its value is -0.934.

Q: With A20C G50U G81C C103U A120U as the variant, how does the “polymerase ribozyme fitness (log ratio)” value read?
A: The value was -2.

Q: With A20G G50C C54G C105G A106U G133C U151A as the variant, how does the “polymerase ribozyme fitness (log ratio)” value read?
A: The value was at most -4.2.

Q: Which “polymerase ribozyme fitness (log ratio)” value does the source give for A20U G81C A147U here?
A: The value was -0.168.

Q: With A20U C96G A150U as the variant, how does the “polymerase ribozyme fitness (log ratio)” value read?
A: Its value is 0.47.

Q: With A20U A89U as the variant, how does the “polymerase ribozyme fitness (log ratio)” value read?
A: The value was -2.12.
